Measured values taken from article PMC9296380, “Characterisation of recombinant GH 3 β-glucosidase from β-glucan producing Levilactobacillus brevis TMW 1.2112” (Antonie Van Leeuwenhoek, 2022).

Substrate: O=[N+]([O-])c1ccc(O[C@@H]2O[C@H](CO)[C@@H](O)[C@H](O)[C@H]2O)cc1
Assay: purified protein
Assay type: biochemical, Levilactobacillus brevis
Settings: 50 mM PBS buffer pH 7, 37 °C, 0.01-20 mM substrate

B1: BglB (Levilactobacillus brevis) (protein)
chain: MDIERTLAELTLPEKAALVSGKNNWYTAAVDRLDLPALMMTDGPSGLRKQTNSGTTNINDAIQAITYPAAALSASTWNESLMHQLGEHLGIEARAEQVSLLLGPGVNMKRSPLGGRNFEYLAEDPLVAGKLGSAYVQGVQSQHVGVAVKHFAANNRENQRFTASSDMSERTLRELYLRTFEIIVKSAYPATIMTSYNKINGVLNSQNERLLRRILRDEWGFHGAVMSDWGAVANTVQALKAGLDLEMPGKGQASVNDIIRAVHTGELDEGTLNKAVRHLLHVVDDWLPADHAQPYDHAAHHQFARKLADDGIILLKNHEDELPLDPQTTGKVVVIGELAENPRFQGSGSSHVNPTKLVSPLDALADSGLKADYYPGYRLDQSETNGDLAEAALTAAKTADHVIIFAGYPETAESEGFDKASLMLPENQSDLIGSLAKANVHTTVVLQNGSAVEMPWIHSVAAVVETYLAGEAVGEATWDIITGAVNPSGHLTETFPRRLTDTPMAPTFGQDPHHEYYTEGIFMGYRYYDTHEMHVLFPFGHGLSYTTFEYTNLKLTQNERGATVTFDVTNTGARSGQAVPQLYIANHASHVPMPTKELRAFTKVAIAPGETETVTLALDRRDFSWWCEPKARWQADSGDYEVMIGESSRDIRLQVKLTMDFKNSPAPITTETYMAAIVKNPQLRDLFKQVVLAPEYAGPENFLATTDDQGSLQIFQDRMFMNMPLRAVVALGGPQALITDFITRANTLLRQ
notes: no signal peptide predicted; C-terminal His tag (stop codon removed, Myc region excised) from pBAD/Myc-His A; expressed in E. coli BL21, Ni-NTA purified; primer-encoded N-terminus MDIERTLAEL
Q: With B1 as the protein, how does the Km read?
A: 220 µM

Q: And the kcat?
A: 59.58 s⁻¹
